Laboratory results as given in patent US20210261636A1, “NEOANTIGENS EXPRESSED IN MULTIPLE MYELOMA AND THEIR USES” (Janssen Biotech, Inc., priority 2020, published 2021).

B1: YESPIFSRDRVNPGALSGSLGQARAACWRTLGSLKPGGEFRAAEQRRAGWVPGAPGFTCSLISSRFPRERFCLRHRSSWRGARRVQCVCPGQTEGLWL (peptide)
chain: YESPIFSRDRVNPGALSGSLGQARAACWRTLGSLKPGGEFRAAEQRRAGWVPGAPGFTCSLISSRFPRERFCLRHRSSWRGARRVQCVCPGQTEGLWL
notes: alternative splicing, WNT10A
B2: SLLIGALRITWKREAGRKSFFKCGLRVHMWKGLQFIEITRRNWMLIFQSCSLFGTSQYRSLTKKCQLCFRFKRVSSKGSDITDKREVTH (peptide)
chain: SLLIGALRITWKREAGRKSFFKCGLRVHMWKGLQFIEITRRNWMLIFQSCSLFGTSQYRSLTKKCQLCFRFKRVSSKGSDITDKREVTH
notes: alternative splicing, ARHGAP42
B3: GWKICREGIGPVMLTMTSGEWSFSFLEAICGVSREPVPRRRHCIWDTRGGVGLCEASCWRPTSEVG (peptide)
chain: GWKICREGIGPVMLTMTSGEWSFSFLEAICGVSREPVPRRRHCIWDTRGGVGLCEASCWRPTSEVG
notes: alternative splicing, STARD5
B4: MSATTGSQDNPEGKRDPSRKFQEQKALPKRPPLQKNLRNGVGQHYPATLTSRTRNSIKMRHSRTTRARRPPPSPVLPWAASNSQARPETSSLSEKSPEV (peptide)
chain: MSATTGSQDNPEGKRDPSRKFQEQKALPKRPPLQKNLRNGVGQHYPATLTSRTRNSIKMRHSRTTRARRPPPSPVLPWAASNSQARPETSSLSEKSPEV
notes: alternative splicing, CSAG1
B5: RQREVVDLVKKDLVMRAVSLGTQRGDQNGRPSWSGHAIWARIMECAYKGQQECLVETGALGPMAFRVHLGSQVGMDSKEKRGNV (peptide)
chain: RQREVVDLVKKDLVMRAVSLGTQRGDQNGRPSWSGHAIWARIMECAYKGQQECLVETGALGPMAFRVHLGSQVGMDSKEKRGNV
notes: alternative splicing, CTHRC1
B6: VYPVYQPVVSQAGLGELWQWASGKLRGYCWRRGQWHAYSIQCDPHPVFGEGACDCSETEAHGGCQSPRLESFPGQPPGFRGQRF (peptide)
chain: VYPVYQPVVSQAGLGELWQWASGKLRGYCWRRGQWHAYSIQCDPHPVFGEGACDCSETEAHGGCQSPRLESFPGQPPGFRGQRF
notes: gene fusion NDUFB8-> SEC31B
B7: EIEGSCHGGMITMDIKMGSYSCDYLKHSETLSAMVVSCGISFLFLFPRKKIAKLIFKEQVP (peptide)
chain: EIEGSCHGGMITMDIKMGSYSCDYLKHSETLSAMVVSCGISFLFLFPRKKIAKLIFKEQVP
notes: alternative splicing, EPHA6

Key:
[1] = tested on: CD8+ T cells; assay: Exogenous autologous healthy donor restimulation assay, TNFα and IFNγ production by CD8+ T cells; format: cell-based, human; design: Frequency (TNFα+ IFNγ+ CD8 T cells): unit not given here; details: for Fold change (CD8+) vs. DMSO: maximum CD8+ T-cell response (TNFα and IFNγ); for Fold change (CD8+) vs. DMSO / Frequency (TNFα+ IFNγ+ CD8 T cells): donor independent, peptide pool 10 μg/mL, healthy donors; for Frequency (TNFα+ IFNγ+ CD8 T cells): maximum CD8+ T-cell response; for Immunogenic (yes/no): positive if CD8+ and/or CD4+ double positive TNFα/IFNγ frequency >=3-fold over DMSO and at least 0.01%
How it was run: (§1)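 CD1c+ DCs from healthy donor PBMCs pulsed 2 h with 15-mer overlapping neoantigen peptide pools (10 μg/mL), irradiated 50 Gy, then co-cultured 12 days with autologous CD3+ T cells plus IL-15/IL-2. Restimulated day 11 with same pools, overnight with protein inhibitor; intracellular TNFα/IFNγ by flow. Positive: ≥3-fold over DMSO and ≥0.01% double-positive.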

[2] = tested on: CD4+ T cells; assay: Exogenous autologous healthy donor restimulation assay, TNFα and IFNγ production by CD4+ T cells; format: cell-based, human; design: Frequency (TNFα+ IFNγ+ CD4 T cells): unit not given here; details: donor independent, peptide pool 10 μg/mL, healthy donors; for Fold change (CD4+) vs. DMSO: maximum CD4+ T-cell response (TNFα and IFNγ); for Frequency (TNFα+ IFNγ+ CD4 T cells): maximum CD4+ T-cell response
How it was run: as §1

Row | Molecule | Fold change (CD8+) vs. DMSO [1] | Frequency (TNFα+ IFNγ+ CD8 T cells) [1] | Immunogenic (yes/no) [1] | Fold change (CD4+) vs. DMSO [2] | Frequency (TNFα+ IFNγ+ CD4 T cells) [2]
1 | B1 | 38.74 | 0.095 | Yes | 12.303 | 0.071
2 | B2 | 1100 | 0.29 | Yes | 15.34 | 0.1
3 | B3 | 874.02 | 7.77 | Yes | 44.35 | 0.081
4 | B4 | 6327.68 | 11.2 | Yes | 79.18 | 0.12
5 | B5 | 288.14 | 0.51 | Yes | 223.78 | 0.16
6 | B6 | 42.81 | 0.064 | Yes | 1.94 | 0.011
7 | B7 | 100 | 17 | Yes | 111.44 | 0.57
